Like-named read-outs stand apart in the source and are kept apart here. Bridge positions count the residues as written; N and C are the ends. Square brackets hold non-standard residues; d marks the D form. Peptide text beside a SMILES is read from it. * marks the point of attachment. ξ: configuration not given here. X1 = CNC(=O)c1ccccc1Sc1ccc2c(/C=C/c3ccccn3)nn(C(=O)N(CCNC(=O)[C@@H](N)CCC(=O)O)CCC(=O)*)c2c1; X3 = CNC(=O)c1ccccc1Sc1ccc2c(/C=C/c3ccccn3)nn(C(=O)N(CCOC(=O)[C@@H](N)CCC(=O)O)CCC(=O)*)c2c1; X2 = CNC(=O)c1ccccc1Sc1ccc2c(/C=C/c3ccccn3)nn(C(=O)N(CCNC(=O)CC[C@H](N)C(=O)O)CCC(=O)*)c2c1; Thr(3ξ) = CC(O)[C@H](N)C(=O)O; Dab = NCC[C@H](N)C(=O)O; ξL = CC(C)CC(N)C(=O)O
Columns and labels:
[1] = for Blood Plasma Conc. of axitinib / Blood Plasma Conc. of released axitinib / Kidney Tissue Conc. of released axitinib: mouse; for Blood Plasma Conc. of axitinib: oral gavage, single dose 30 mg/kg; for axitinib level in kidney tissues vs from axitinib itself: 3 mg/kg compound vs 30 mg/kg oral axitinib; for Blood Plasma Conc. of released axitinib / Kidney Tissue Conc. of released axitinib: injection, single dose 3 mg/kg; for Kidney Tissue Conc. of released axitinib: corrected for kidney tissue density
[2] = axitinib therapy, human use; cited from earlier work
[3] = in vivo; details: mouse, 3 mg/kg; for level at 3 h: iv
Excerpt: Preferential accumulation of compounds provided herein in kidneys (or near the site of a kidney cancer) may be evaluated by pharmacokinetic (PK) tests, such as in a standard rat PK test.

[4] = system: HK-2 cell line; assay: HK-2 cytotoxicity assay; assay type: cell-based, human
Excerpt: The assay is analogously to that described, for example, by Keirstead et al. in Toxicol. Sci. 2014, vol. 137, pp. 278-291.

[5] = 14-days repeat-dose mouse tolerability test; assay type: in vivo; details: dose of at least 18 mg/kg/day
[6] = In vitro antibacterial activity (MIC); assay type: cell-based; details: relative to polymyxin antibiotics such as polymyxin B and colistin
[7] = system: luciferase-expressing A498 renal cancer cell line (A498-luc); details: 12 mg/kg/day ip vs axitinib at 30 mg/kg/day
Procedure: An illustrative efficacy study for the compounds described herein was investigated in an orthotopic mouse model. In this model, a luciferase-expressing A498 renal cancer cell line (A498-luc) was used. The cancer cells were implanted into a kidney capsule and the tumor growth and effect were monitored by the image size using IVIS Lumina III (Perkin Elmer) and mouse body weight changes. Specifically, mice were anesthetized by SC injection of Zolet™ m 50 (Virbac S. A.) after 24 h fasting. The skin of anesthetized mice was sterilized with iodine followed by alcohol. 4×10^6 luciferase-expressing A498-luc cells were implanted in the left kidney by insulin syringe. The skin incisions were closed with autosuture clip. The tumor growths were monitored by image analysis. […] At 10 mins after the luciferin injection, the mice were imaged (once a week). Living image software (Perkin Elmer) is used to compute regions of interest (ROI) and integrate the total bioluminescence signal in each ROI. Bioluminescent signals (photos/s) from ROI were quantified and used as an indicator of tumor growth and antitumor activity. Body weight of all mice were measured twice a week throughout the study.

In the case of `CNC(=O)c1ccccc1Sc1ccc2c(/C=C/c3ccccn3)n[nH]c2c1` [Axitinib, N-methyl-2-[[3-[(E)-2-pyridin-2-ylethenyl]-1H-indazol-6-yl]sulfanyl]benzamide, reference compound], the “Blood Plasma Conc. of axitinib” value ([1]; T = 3 h) is reported as “T = 3 h: 397.3 ng/mL”, the “Blood Plasma Conc. of axitinib” value ([1]; T = 6 h) is reported as “T = 6 h: 75.6 ng/mL” and the “Blood Plasma Conc. of axitinib” value ([1]; T = 12 h) is reported as “T = 12 h: 11.4 ng/mL”. The “Blood Plasma Conc. of axitinib” value ([1]; T = 24 h) was “T = 24 h: BLQ^d” and the “incidence of hypertensive adverse effects” value [2] was 40-64%.
With `CNC(=O)c1ccccc1Sc1ccc2c(/C=C/c3ccccn3)nn(C(=O)N(CCNC(=O)[C@@H](N)CCC(=O)O)CCC(=O)N[C@H](C(=O)N[C@@H](CCN)C(=O)N[C@H]3CCNC(=O)[C@H](C(C)O)NC(=O)[C@H](CCN)NC(=O)[C@H](CCN)NC(=O)[C@H](CC(C)C)NC(=O)[C@@H](Cc4ccccc4)NC(=O)[C@H](CCN)NC3=O)C(C)O)c2c1` (stereo partly shown) [Example 1] (X1-[Thr(3ξ)][Dab][Dab][Dab][dF]L[Dab][Dab][Thr(3ξ)]; lactam 3-C) the “Kidney-to-Blood Conc. Ratio” value ([3]; T = 3 h after injection) was 63, the level at 3 h ([3]; kidney) was 563 ng/mL and the level at 3 h ([3]; plasma) was 9 ng/mL. For the same compound, the “In vitro human HK-2 assay IC50” value ([4]; HK-2 immortalized proximal tubule cells from normal human kidney) was >100 µg/mL, the “fold less active than axitinib in HK-2 cytotoxicity assay” value ([4]; vs axitinib (free drug form)) was 2-3 fold and the tolerability [5] was “well-tolerated”. The “antibacterial activity (MIC, minimum inhibitory concentration)” value [6] was “minimized antibacterial activity”, the “axitinib level in kidney tissues vs from axitinib itself” value ([1]; at 3 h) was 6.50 fold and the “axitinib level in kidney tissues vs from axitinib itself” value ([1]; at 6 h) was “about 15 fold”. The “Blood Plasma Conc. of released axitinib” value ([1]; T = 3 h) was “T = 3 h: 9.7 ng/mL”, the “Kidney Tissue Conc. of released axitinib” value ([1]; T = 3 h) was “T = 3 h: 1955.3 ng/mL” and the “Blood Plasma Conc. of released axitinib” value ([1]; T = 6 h) was “T = 6 h: 4.0 ng/mL”. For the same compound, the “Kidney Tissue Conc. of released axitinib” value ([1]; T = 6 h) was “T = 6 h: 1448.5 ng/mL”, the “Blood Plasma Conc. of released axitinib” value ([1]; T = 12 h) was “T = 12 h: BLQ” and the “Kidney Tissue Conc. of released axitinib” value ([1]; T = 12 h) was “T = 12 h: 1437.9 ng/mL”. For the same compound, the “Blood Plasma Conc. of released axitinib” value ([1]; T = 24 h) was “T = 24 h: BLQ” and the “body weight change (loss in weight) during efficacy study” value [7] was “minimized loss in weight”.
With `CNC(=O)c1ccccc1Sc1ccc2c(/C=C/c3ccccn3)nn(C(=O)N(CCNC(=O)[C@@H](N)CCC(=O)O)CCC(=O)N[C@H]3CCNC(=O)[C@H]([C@@H](C)O)NC(=O)[C@H](CCN)NC(=O)[C@H](CCN)NC(=O)C(CC(C)C)NC(=O)[C@@H](Cc4ccccc4)NC(=O)[C@H](CCN)NC3=O)c2c1` (stereo partly shown) [Example 2] (X1-[Dab][Dab][dF][ξL][Dab][Dab]T; lactam 1-C) the “Blood Plasma Conc. of released axitinib” value ([1]; T = 3 h) was “T = 3 h: 3.3 ng/mL”, the “Kidney Tissue Conc. of released axitinib” value ([1]; T = 3 h) was “T = 3 h: 5140 ng/mL” and the “Blood Plasma Conc. of released axitinib” value ([1]; T = 6 h) was “T = 6 h: BLQ”. For the same compound, the “Kidney Tissue Conc. of released axitinib” value ([1]; T = 6 h) was “T = 6 h: 4630 ng/mL”.
In the case of `CNC(=O)c1ccccc1Sc1ccc2c(/C=C/c3ccccn3)nn(C(=O)N(CCOC(=O)[C@@H](N)CCC(=O)O)CCC(=O)N[C@H]3CCNC(=O)[C@H]([C@@H](C)O)NC(=O)[C@H](CCN)NC(=O)[C@H](CCN)NC(=O)C(CC(C)C)NC(=O)[C@@H](Cc4ccccc4)NC(=O)[C@H](CCN)NC3=O)c2c1` (stereo partly shown) [Example 7] (X3-[Dab][Dab][dF][ξL][Dab][Dab]T; lactam 1-C), the “Blood Plasma Conc. of released axitinib” value ([1]; T = 3 h) is reported as “T = 3 h: 14.5 ng/mL”, the “Kidney Tissue Conc. of released axitinib” value ([1]; T = 3 h) is reported as “T = 3 h: 4280 ng/mL” and the “Blood Plasma Conc. of released axitinib” value ([1]; T = 6 h) is reported as “T = 6 h: BLQ”. The “Kidney Tissue Conc. of released axitinib” value ([1]; T = 6 h) was “T = 6 h: 4860 ng/mL”.
For `CNC(=O)c1ccccc1Sc1ccc2c(/C=C/c3ccccn3)nn(C(=O)N(CCNC(=O)CC[C@H](N)C(=O)O)CCC(=O)N[C@H](C(=O)N[C@@H](CCN)C(=O)N[C@H]3CCNC(=O)[C@H]([C@@H](C)O)NC(=O)[C@H](CCN)NC(=O)[C@H](CCN)NC(=O)[C@H](CC(C)C)NC(=O)[C@@H](Cc4ccccc4)NC(=O)[C@H](CCN)NC3=O)[C@@H](C)O)c2c1` [Example 9, reference compound] (X2-T[Dab][Dab][Dab][dF]L[Dab][Dab]T; lactam 3-C), the “Blood Plasma Conc. of released axitinib” value ([1]; T = 3 h) was “T = 3 h: 14.9 ng/mL”, the “Kidney Tissue Conc. of released axitinib” value ([1]; T = 3 h) was “T = 3 h: 371.6 ng/mL” and the “Blood Plasma Conc. of released axitinib” value ([1]; T = 6 h) was “T = 6 h: BLQ”. For the same compound, the “Kidney Tissue Conc. of released axitinib” value ([1]; T = 6 h) was “T = 6 h: 28.8 ng/mL”.
